Measurements taken from patent publication US7888089B2, “eNOS mutations useful for gene therapy and therapeutic screening” (Yale University, priority 1999, dated 2011).
“And” between values parts separate entries of the source, which are not always exact repeats. Identical values can stand only once. Like-named read-outs stand apart in the source and are kept apart here.

Tests used:
eNOS [1] = experiment: Conversion of L-arginine to L-citrulline by purified eNOS; type: biochemical, bovine; conditions: for Kcat (CaM, L-Citrulline): CaM activation of NOS activity
Procedure: The conversion of L-arginine to L-citrulline was assayed as described previously by Bredt et al. (1990). Briefly, eNOS (0.25-2 μg) was incubated for 3-10 min at 23° C. in the following reaction mixture: 3 pmol of L-[3H]arginine (55 Ci/mmol), 10-300 μM arginine, 1 mM NADPH, 120-200 nM calmodulin, 2 mM CaCl2, and 30 μM BH4 in a final reaction volume of 50-100 μl. The reaction was terminated by the addition of 0.5 ml of 20 mM HEPES, pH 5.5, containing 2 mM EGTA and EDTA. The reaction mixture was placed over Dowex AG50WX8, and the flow-through was counted on a Packard 1500 liquid scintillation analyzer.

eNOS [2] = experiment: NOS activity (3H-L-arginine to 3H-L-citrulline) in COS cell lysates; type: biochemical, bovine; conditions: COS cells transfected with eNOS only, n=3
Text: NOS activity assays: The conversion of ^3H-L-arginine to ^3H-L-citrulline was used to determine NOS activity in COS cell or endothelial cell lysates as previously described by Garcia-Cardena et al. (1998).

[3] = DCIP reduction by purified eNOS; type: biochemical; conditions: FIG. 6B
Procedure: (§1) Assays for Reductase Activity—NADPH-cytochrome c reductase activity and 2,6-dichlorophenolindophenol (DCIP) reduction were measured as a change in absorbance at 550 nm as described previously by Martasek et al. (1999) and Masters et al. (1967) using an extinction coefficient of 0.021 μM^−1 cm^−1 for both cytochrome c and DCIP. Briefly, a reaction mixture (1 ml) contained either cytochrome c (90 μM); DCIP (36 μM), HEPES buffer (50 mM) at pH 7.6, NaCl (250 mM), NADPH (100 μM), calmodulin (120 nM), and CaCl2 (200 μM); or other substances as indicated. The reaction was monitored for 60 s (at 23° C.) after the addition of eNOS. When inactivation of reductase activity was determined by the addition of EGTA (200-800 μM), chelator was added 1 min after initiation of the reaction and monitored for an additional 1 min. The reaction contained HEPES buffer (50 mM) at pH 7.6, CaM (120 nM), and CaCl2 (200 μM) and was initiated with NADPH (100 μM). No NaCl was added in experiments that examined EGTA inactivation of eNOS to mimic the conditions used in the hemoglobin capture experiments. […] Determination of the calcium EC50 for eNOS was performed as described above for the hemoglobin capture assay.

eNOS [4] = experiment: Hemoglobin capture assay of NO production by purified eNOS; type: biochemical, bovine; conditions: for Kcat (substrate Arginine, Hemoglobin capture): rate of NO production vs L-arginine, optimal conditions
Procedure: Assay for NOS Activity—NO production was measured by the hemoglobin capture assay as described (Kelm et al., 1988). Briefly, the reaction mixture contained eNOS (0.5-2.5 μg), oxyhemoglobin (8 μM), L-arginine (100 μM), BH4 (5 μM), CaCl2 (120 μM), calmodulin (120-200 nM), and NADPH (100 μM) in HEPES buffer (50 mM), pH 7.4. […] Under these conditions, free calcium was calculated using the WinMAXC program, version
NOS activity was monitored for linearity over 2 min at 401 nm, and NO production was calculated based on the change of absorbance using the extinction coefficient of 60 mM^−1 cm^−1. All reactions were carried out at 23° C., and each data point represents 3-8 observations. The extinction coefficient of 0.0033 μM^−1 cm^−1 at 276 nm was used for determination of calmodulin concentration. […] When the inactivation of eNOS was determined by the addition of EGTA (200-800 μM) to the reaction mixture, chelator was added 1 min after initiation of the reaction by NADPH. Identical conditions were used when NADPH-cytochrome c reductase activity was examined. These reactions contained CaM (120 nM) and CaCl2 (200 μM) in a 0.5-ml volume with eNOS (0.5 μg).

cytochrome c = experiment: NADPH-cytochrome c reductase activity of purified eNOS; type: biochemical; conditions: for EC50: cytochrome c reduction; for Km: Km for NADPH
Procedure: as §1

B1: S1179D: bovine eNOS with serine 1179 mutated to aspartic acid (protein)
chain: GNLKSVGQEPGPPCGLGLGLGLGLCGKQGPASPAPEPSRAPAPATPHAPDHSPAPNSPTLTRPPEGPKFPRVKNWELGSITYDTLCAQSQQDGPCTPRCCLGSLVLPRKLQTRPSPGPPPAEQLLSQARDFINQYYSSIKRSGSQAHEERLQEVEAEVASTGTYHLRESELVFGAKQAWRNAPRCVGRIQWGKLQVFDARDCSSAQEMFTYICNHIKYATNRGNLRSAITVFPQRAPGRGDFRIWNSQLVRYAGYRQQDGSVRGDPANVEITELCIQHGWTPGNGRFDVLPLLLQAPDEAPELFVLPPELVLEVPLEHPTLEWFAALGLRWYALPAVSNMLLEIGGLEFSAAPFSGWYMSTEIGTRNLCDPHRYNILEDVAVCMDLDTRTTSSLWKDKAAVEINLAVLHSFQLAKVTIVDHHAATVSFMKHLDNEQKARGGCPADWAWIVPPISGSLTPVFHQEMVNYILSPAFRYQPDPWKGSATKGAGITRKKTFKEVANAVKISASLMGTLMAKRVKATILYASETGRAQSYAQQLGRLFRKAFDPRVLCMDEYDVVSLEHEALVLVVTSTFGNGDPPENGESFAAALMEMSGPYNSSPRPEQHKSYKIRFNSVSCSDPLVSSWRRKRKESSNTDSAGALGTLRFCVFGLGSRAYPHFCAFARAVDTRLEELGGERLLQLGQGDELCGQEEAFRGWAKAAFQASCETFCVGEEAKAAAQDIFSPKRSWKRQRYRLSTQAEGLQLLPGLIHVHRRKMFQATVLSVENLQSSKSTRATILVRLDTAGQEGLQYQPGDHIGICPPNRPGLVEALLSRVEDPPPPTESVAVEQLEKGSPGGPPPSWVRDPRLPPCTLRQALTFFLDITSPPSPRLLRLLSTLAEEPSEQQELETLSQDPRRYEEWKWFRCPTLLEVLEQFPSVALPAPLLLTQLPLLQPRYYSVSSAPNAHPGEVHLTVAVLAYRTQDGLGPLHYGVCSTWLSQLKTGDPVPCFIRGAPSFRLPPDPYVPCILVGPGTGIAPFRGFWQERLHDIESKGLQPAPMTLVFGCRCSQLDHLYRDEVQDAQERGVFGRVLTAFSREPDSPKTYVQDILRTELAAEVHRVLCLERGHMFVCGDVTMATSVLQTVQRILATEGDMELDEAGDVIGVLRDQQRYHEDIFGLTLRTQEVTSRIRTQDFSLQERHLRGAVPWAFDPPGPDTPGP
Q: With B1 as the molecule, how does the “Kcat (CaM, L-Citrulline)” value (eNOS [1]) read?
A: Its value is 0.717 ± 0.033 s⁻¹.

Q: And the “Kcat (CaM, L-Citrulline)” value (eNOS [1]; listed as S1179D eNOS)?
A: Its value is 0.717 s⁻¹.

Q: And the EC50 (eNOS [1]; EC50 for CaM, NOS activity)?
A: The EC50 was 7 nM.

Q: And the “NOS activity in lysates” value (eNOS [2])?
A: Its value is 131.8±36.7 pmol L-citrulline generated/mg protein.

Q: And the “DCIP reduction activity compared with wild type eNOS” value [3]?
A: The value was “significant increase in activity”.

Q: And the “sensitivity of NO production to the addition of EGTA” value (eNOS [4]; 0-600 μM EGTA, 200 μM calcium)?
A: The value was “less sensitive to the addition of EGTA”.

Q: What about the “NO production after calcium chelation with EGTA” value (eNOS [4]; 600 μM EGTA, 200 μM calcium) of the same molecule?
A: Its value is “residual activity was still detected”.

Q: What about the EC50 (eNOS [4]; EC50 for free calcium, NO production, 250 nM CaM, read-out: EC50 (Ca2+, Hemoglobin capture, 100 mM KCl)) of the same molecule?
A: The EC50 was 250 nM.

Q: What about the “calcium dependence of NO production after normalization for maximal activity” value (eNOS [4]; FIG. 8C, p<0.05) of the same molecule?
A: Its value is “slightly increased”.

Q: And the Km (eNOS [4]; Km for L-arginine, read-out: Km (substrate Arginine, Hemoglobin capture))?
A: The Km was 2.5 µM.

Q: And the Km (eNOS [4]; Km for NADPH, in presence of CaM, read-out: Km (NADPH, Hemoglobin capture))?
A: Its Km is 36 µM.

Q: What about the “Kcat (NADPH, Hemoglobin capture)” value (eNOS [4]; NADPH dependence, in presence of CaM) of the same molecule?
A: Its value is 0.883 ± 0.05 s⁻¹.

Q: What about the “increase in the Km for NADPH, S1179D compared with wild type eNOS” value (eNOS [4]; NO production, presence of CaM) of the same molecule?
A: Its value is 4 fold.

Q: What about the “Kcat (Ca2+, Hemoglobin capture, 100 mM KCl)” value (eNOS [4]; calcium activation, 250 nM CaM) of the same molecule?
A: The value was 1.67 ± 0.05 s⁻¹.

Q: And the “maximal turnover rate, FIG. 8C” value (eNOS [4]; calcium-dependent NO production)?
A: The value was 100 min1.

Q: And the “maximal turnover rate, FIG. 8A” value (eNOS [4]; calmodulin-dependent hemoglobin capture)?
A: The value was 43 min⁻¹.

Q: And the “Kcat (substrate Arginine, Hemoglobin capture)” value (eNOS [4])?
A: Its value is 1.4 ± 0.1 s⁻¹.

Q: What about the “Kcat (substrate Arginine, Hemoglobin capture)” value (eNOS [4]; listed as S1179D eNOS) of the same molecule?
A: Its value is 1.4 ± 0.1 s⁻¹.

Q: And the “kcat for CaM activation of cytochrome c reduction, S1179D compared with wild type” value (cytochrome c)?
A: Its value is “about 2 fold”.

Q: What about the “Kcat (CaM, Cytochrome c)” value (cytochrome c; CaM activation of cytochrome c reduction) of the same molecule?
A: Its value is 19 s⁻¹ and 19 ± 1.25 s⁻¹.

Q: What about the EC50 (cytochrome c; EC50 for CaM, listed as S1179D eNOS, read-out: EC50 (CaM, Cytochrome c)) of the same molecule?
A: The EC50 was 13 nM.

Q: What about the EC50 (cytochrome c; EC50 for CaM, read-out: EC50 (CaM, Cytochrome c)) of the same molecule?
A: The EC50 was 21 nM.

Q: And the EC50 (cytochrome c; EC50 for free calcium, read-out: EC50 (Ca2+, Cytochrome c, 100 mM KCl))?
A: Its EC50 is 220 nM.

Q: What about the “cytochrome c reduction activity compared with wild type eNOS” value (cytochrome c; FIG. 6B) of the same molecule?
A: The value was “significant increase in activity”.

Q: What about the Km (cytochrome c; absence of CaM) of the same molecule?
A: The Km was 2 µM.

Q: What about the Km (cytochrome c; presence of CaM) of the same molecule?
A: Its Km is 1.9 µM.

Q: What about the “Kcat − CaM (NADPH, Cytochrome c)” value (cytochrome c; NADPH dependence, absence of CaM) of the same molecule?
A: Its value is 4.83 ± 0.15 s⁻¹.

Q: What about the “Kcat − CaM (NADPH, Cytochrome c)” value (cytochrome c; NADPH dependence, absence of CaM, listed as eNOS S1179D) of the same molecule?
A: Its value is 4.83 s⁻¹.

Q: What about the “Kcat + CaM (NADPH, Cytochrome c)” value (cytochrome c; NADPH dependence, presence of CaM) of the same molecule?
A: The value was 14 s⁻¹ and 14 ± 0.983 s⁻¹.

Q: And the “basal cytochrome c reduction, S1179D compared with wild type eNOS” value (cytochrome c; absence of CaM)?
A: Its value is 4 fold.

Q: And the “cytochrome c reduction, first value of pair (with superoxide dismutase)” value (cytochrome c; absence of CaM)?
A: The value was 278 ± 9 min⁻¹.

Q: And the “cytochrome c reduction, second value of pair (without superoxide dismutase)” value (cytochrome c; absence of CaM)?
A: The value was 288 ± 7 min⁻¹.

Q: What about the “Kcat (Ca2+, Cytochrome c, 100 mM KCl)” value (cytochrome c; calcium activation) of the same molecule?
A: The value was 63.3 ± 0.9 s⁻¹.

Q: What about the “maximal turnover rate, FIG. 8D” value (cytochrome c; calcium-dependent cytochrome c reduction) of the same molecule?
A: The value was 3810 min⁻¹.

Q: What about the “maximal turnover rate, FIG. 8B” value (cytochrome c; calmodulin-dependent cytochrome c reduction) of the same molecule?
A: The value was 1400 min1.

Q: And the “reductase activity after calcium chelation with EGTA” value (cytochrome c; highest concentration of EGTA)?
A: The value was “residual reductase activity was found”.

Q: What about the “cytochrome c reduction with superoxide dismutase” value (cytochrome c; presence of CaM) of the same molecule?
A: The value was 1179 ± 43 min⁻¹.

Q: What about the “cytochrome c reduction without superoxide dismutase” value (cytochrome c; presence of CaM) of the same molecule?
A: The value was 1518 ± 19 min⁻¹.

Q: What about the “relative decrease in cytochrome c activity in the presence of superoxide dismutase” value (cytochrome c; presence of CaM) of the same molecule?
A: The value was 22%.

Q: What about the “CaM-stimulated cytochrome c reduction” value (cytochrome c; presence of CaM, n=3-5) of the same molecule?
A: The value was 1272 ± 55 min⁻¹.

Q: And the “level of stimulation of cytochrome c reduction by CaM” value (cytochrome c; with vs without CaM)?
A: The value was 3 fold.
